From PMC5988349

Legend:
[1] = target: dynactin (purified from pig brains) (pig (endogenous in pig brain)) (UniProt F2Z5G5); assay: cryo-EM structure
[2] = target: dynactin (purified from pig brains) (pig (endogenous in pig brain)) (UniProt F2Z5G5); assay: negative-stain EM with 3D classification
[3] = target: dynein tail (HC^1-1455) complex (human) (UniProt Q14204); assay: negative-stain EM with 3D classification
[4] = target: wild-type human cytoplasmic dynein-1, SNAPf-tagged, labelled with TMR or Alexa647 (human) (UniProt Q14204)

Row | Substance | stoichiometry N [1] | percent of adaptor complexes with one dynein (with m5) [2] | percent of adaptor complexes with two dyneins (with m2 and m4) [3] | percent of adaptor complexes with two dyneins (with m2 and m5) [3] | percent of adaptor complexes with two dyneins (with m2 and m6) [3] | velocity of BICD2 complexes containing both fluorophores, and hence two dyneins [4]
1 | dynein tail (HC^1-1455) complex (from UniProt Q14204;O43237;P63172;P63167;Q9NP97) | 2 | 69% | 88% | 17% | 94% | 
2 | wild-type human cytoplasmic dynein-1, SNAPf-tagged, labelled with TMR or Alexa647 (from UniProt Q14204;O43237;P63172;P63167;Q9NP97) (complex) |  |  |  |  |  | 1.08 μm/s
